The data set concerns the molecule itself. The data set can be described thus: crystal structure; sitting drop vapour diffusion at 293 K; truncated apo-TDO2 with 2 mM AMT, alone or after incubation with 1 mM inhibitor (Rac-1, Cpd-1, Cpd-4).

B1: truncated human apo-TDO2 (aa 39-389) with a C-terminal hexa-histidine tag (enzyme, UniProt P48775 39-389, looked up)
chain: GLIYGNYLHLEKVLNAQELQSETKGNKIHDEHLFIITHQAYELWFKQILWELDSVREIFQNGHVRDERNMLKVVSRMHRVSVILKLLVQQFSILETMTALDFNDFREYLSPASGFQSLQFRLLENKIGVLQNMRVPYNRRHYRDNFKGEENELLLKSEQEKTLLELVEAWLERTPGLEPHGFNFWGKLEKNITRGLEEEFIRIQAKEESEEKEEQVAEFQKQKEVLLSLFDEKRHEHLLSKGERRLSYRALQGALMIYFYREEPRFQVPFQLLTSLMDIDSLMTKWRYNHVCMVHRMLGSKAGTGGSSGYHYLRSTVSDRYKVFVDLFNLSTYLIPRHWIPKMNPTIHKFL
notes: human tryptophan-2,3-dioxygenase (TDO2), P48775.1, amino acids 39-389, heme-free (apo) form; S1 Text is said to show additional amino acids introduced as a linker or during subcloning; calculated molecular mass 42940.24 Da; also called tryptophan-2,3-dioxygenase; TDO2 aa39-389-His6; source: E. coli RP523 (hemB mutant, unable to synthesize heme), anaerobic expression, purified (HisTrap, HiTrap Q, …)
On to B1, for which the “stoichiometry N” value turned out to be 4.

The stoichiometry N is the number of molecules, sites or subunits per partner or assembly.

Values taken from publication doi:10.1101/2024.01.09.574827, “Discovery and binding mode of small molecule inhibitors of the apo form of human TDO2” (bioRxiv, 2024).
